Changes are numbered by the printed parent chain. Several values for one entry are separate records, joined by “and”; a condition that tells them apart may be missing. Equal values may be shown once.
B1: BMS3h-37-213 (other)
VH: EVQLLESGGGLVQPGGSLRLSCAASGFTFEWYEMQWVRRAPGKGLEWVSAISGDGYRTYYADSVKGRFTISRDNSKNTLYLQMNSLRAEDTAVYYCAKELLFFDYRGRGTLVTVSS
B2: BMS3h-37-11 (other)
VH: B1 VH with R39K, L101G, F102Y
B3: BMS3h-38-1 (other)
VH: EVQLLGSGGGLVQPGGSLRLSCAASGFTFEEEEMIWVRQAPGKGLEWVSAISGSGGSTYYADSVKGRFTISRDNSKNTLYLQMNSLRAEDTAVYYCSKEPFRFDYWGQGTLVTVSS
B4: BMS3h-38-201 (other)
VH: B3 VH with G6A, S97G, R102Y, F103Y
B5: BMS3h-38-205 (other)
VH: B3 VH with G6A, E30F, E31A, E32A, S97G, F103Y
B6: BMS3h-38-211 (other)
VH: B3 VH with G6A, G53R, S54Q, S97G, F103Y
B7: BMS3h-38-215 (other)
VH: B3 VH with G6A, S54L, G56W, S97G, F103Y
B8: BMS3h-38-217 (other)
VH: B3 VH with G6A, G53R, S54R, G56Y, S97G, F103Y
B9: BMS3h-38-219 (other)
VH: B3 VH with G6A, A50S, G53R, S97G, F103Y
B10: BMS3h-38-228 (other)
VH: B3 VH with G6A, G53R, S54N, G56F, S97G, F103Y
B11: BMS3h-38-231 (other)
VH: B3 VH with G6A, T28P, G53R, S54Q, G56W, S97G, F103Y
B12: BMS3h-56-246 (other)
VH: EVQLLESGGGLVQPGGSLRLSCAASGFTFRDYEMWWVRQAPGKGLERVSAINPWGTLTYYADSVKGRFTISRDNSKNTLYLQMNSLRAEDTAVYYCAKLPFTFEDWGQGTLVTVSS
notes: domain antibody (dAb): single human VH domain
B13: BMS3h-56-204 (other)
VH: B12 VH with W54Q, L57R, F101T, T102Y, E104K
notes: as for B12
B14: BMS3h-56-205 (other)
VH: B12 VH with W54Q, L57R, T102Y, E104S, D105E
notes: as for B12
B15: BMS3h-56-207 (other)
VH: B12 VH with W54Q, L57R, T102P, E104S, D105E
notes: as for B12
B16: BMS3h-56-220 (other)
VH: B12 VH with W54Y, T56G, E104D
notes: as for B12
B17: BMS3h-56-223 (other)
VH: B12 VH with K43R, W54P, T56M, E104D
notes: as for B12
B18: BMS3h-56-224 (other)
VH: B12 VH with T56Q
notes: as for B12
B19: BMS3h-56-225 (other)
VH: B12 VH with T56G, L57Y, E104D
notes: as for B12
B20: BMS3h-56-229 (other)
VH: B12 VH with W54Y, T56S, E104D
notes: as for B12
B21: BMS3h-56-232 (other)
VH: B12 VH with T56S, L57H, E104D
notes: as for B12
B22: BMS3h-56-239 (other)
VH: B12 VH with T56S, E104D
notes: as for B12
B23: BMS3h-56-243 (other)
VH: B12 VH with T56G, L57F
notes: as for B12
B24: BMS3h-56-244 (other)
VH: B12 VH with T56G, E104D
notes: as for B12
B25: BMS3h-56-248 (other)
VH: B12 VH with W54Y, T56N, E104D
notes: as for B12
B26: BMS3h-56-253 (other)
VH: B12 VH with W54A, T56G, L57Y, Y95H
notes: as for B12
B27: BMS3h-37-205 (other)
VH: B1 VH with L101E, F102Y, R106W
notes: as for B12
B28: BMS3h-37-206 (other)
VH: B1 VH with E99G, L101E, F102Y, R106W
notes: as for B12
B29: BMS3h-37-207 (other)
VH: B1 VH with L101A, R106W
notes: as for B12
B30: BMS3h-37-212 (other)
VH: B1 VH with Q13R, L101E, R106W
notes: as for B12
B31: BMS3h-37-213 (other)
VH: B1 VH
notes: as for B12
B32: BMS3h-38-238 (other)
VH: B3 VH with G6A, G53R, G56Y, S97G, F103Y
notes: as for B12
B33: BMS3h-38-201 (other)
VH: B3 VH with G6A, S97G, R102Y, F103Y
notes: as for B12
B34: BMS3h-38-202 (other)
VH: B3 VH with G6A, S97G, R102Y
notes: as for B12
B35: BMS3h-38-203 (other)
VH: B3 VH with G6A, E32K, S97G, R102F, F103Y
notes: as for B12
B36: BMS3h-38-204 (other)
VH: B3 VH with G6A, E30P, E31Q, S97G, F103Y
notes: as for B12
B37: BMS3h-38-205 (other)
VH: B3 VH with G6A, E30F, E31A, E32A, S97G, F103Y
notes: as for B12
B38: BMS3h-38-209 (other)
VH: B3 VH with G6A, G53R, S54L, G56W, S97G, F103Y
notes: as for B12
B39: BMS3h-38-215 (other)
VH: B3 VH with G6A, S54L, G56W, S97G, F103Y
notes: as for B12
B40: BMS3h-38-217 (other)
VH: B3 VH with G6A, G53R, S54R, G56Y, S97G, F103Y
notes: as for B12
B41: BMS3h-38-218 (other)
VH: B3 VH with G6A, G53R, S54H, G56W, S97G, F103Y
notes: as for B12
B42: BMS3h-38-223 (other)
VH: B3 VH with G6A, S97G, R102M, F103Y
notes: as for B12
B43: BMS3h-38-224 (other)
VH: B3 VH with G6A, S97G, R102P, F103Y
notes: as for B12
B44: BMS3h-38-225 (other)
VH: B3 VH with G6A, S57G, S97G, F103Y
notes: as for B12
B45: BMS3h-38-226 (other)
VH: B3 VH with G6A, S97G, F101L, R102Y, F103Y
notes: as for B12
B46: BMS3h-38-228 (other)
VH: B3 VH with G6A, G53R, S54N, G56F, S97G, F103Y
notes: as for B12
B47: BMS3h-38-231 (other)
VH: B3 VH with G6A, T28P, G53R, S54Q, G56W, S97G, F103Y
notes: as for B12
B48: BMS3h-38-235 (other)
VH: B3 VH with G6A, G53R, S54N, G56Y, S97G, F103Y
notes: as for B12
B49: BMS3h-38-237 (other)
VH: B3 VH with G6A, G53R, S54G, G56W, S97G, F103Y
notes: as for B12
B50: BMS3h-193-2506 (other)
VL: DIQMTQSPSSLSASVGDRVTITCRASQQIGRRLNWYQQKPGKAPRLLIYLATRLQSGVPSRFSGSGSGTDFTLTISSLQPEDFATYYCHQYESPPLTFGQGTKVEIKR
notes: domain antibody (dAb): single human V kappa domain
B51: BMS3h-193-2501 (other)
VL: B50 VL with Q28T, G30E, Y91F, S93H
notes: as for B50
B52: BMS3h-193-2502 (other)
VL: B50 VL with Q27F, Q28P, G30D
notes: as for B50
B53: BMS3h-193-2503 (other)
VL: B50 VL with Q27S, Q28T
notes: as for B50

What follows are binders tested against human CD40 (human, UniProt P25942 21-277) (assay: cell-based or functional assay).
Chain of human CD40 (P25942 21-277 limits assumed): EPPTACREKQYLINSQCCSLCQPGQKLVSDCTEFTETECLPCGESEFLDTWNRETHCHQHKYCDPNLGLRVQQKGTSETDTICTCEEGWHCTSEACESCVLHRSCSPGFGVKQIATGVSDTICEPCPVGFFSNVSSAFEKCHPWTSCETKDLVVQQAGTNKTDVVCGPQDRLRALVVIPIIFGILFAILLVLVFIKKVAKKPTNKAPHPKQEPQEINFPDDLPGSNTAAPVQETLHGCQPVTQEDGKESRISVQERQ

| Binder | hIZCD40L-driven Human B Cell Proliferation EC50 | CHO-hCD40L-driven DC Activation IL-12 EC50 | CHO-hCD40L-driven Human B Cell Proliferation EC50 | T-B cell MLR EC50 |
| --- | --- | --- | --- | --- |
| B1 | 0.7 nM | – | – | – |
| B2 | 8 nM | – | – | – |
| B3 | 142 nM | – | – | – |
| B4 | > 70 nM | > 800 nM | > 7000 nM | – |
| B5 | 4 nM | 29 nM | 1100 nM | – |
| B6 | 2 nM | 18 nM | 82 nM | 200 nM |
| B7 | 1 nM | 6 nM | 65 nM | 163 nM |
| B8 | 0.8 nM | 1.7 nM | 34 nM | 74 nM |
| B9 | 2 nM | 9 nM | 93 nM | 164 nM |
| B10 | 0.7 nM | – | – | – |
| B11 | 0.66 nM | – | – | – |

These binders were tested against T1, human CD40 (BMS, CY24FEB06-01) (human, UniProt P25942 21-193) (assay: ELISA RBA, competition with IZ-CD40L for soluble human CD40;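 further: Neutravidin-coated 384-well plates, dAb–human CD40 complex incubated 2 h at room temperature, read-out as absorbance at 450 nm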).
T1 construct: Soluble human CD40 reagent of the ELISA RBA
T1 sequence (P25942 21-193 limits assumed): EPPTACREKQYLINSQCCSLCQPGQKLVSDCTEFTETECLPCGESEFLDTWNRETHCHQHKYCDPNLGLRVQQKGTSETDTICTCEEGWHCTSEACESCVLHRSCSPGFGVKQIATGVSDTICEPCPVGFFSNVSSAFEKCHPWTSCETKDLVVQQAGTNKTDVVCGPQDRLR

| Binder | EC50 |
| --- | --- |
| B12 | 11.1 nM |
| B13 | 4.5 nM |
| B14 | 9 nM |
| B15 | 7.3 nM |
| B16 | 4.2 nM |
| B17 | 5 nM |
| B18 | 2.1 nM and 4.2 nM |
| B19 | 2.9 nM |
| B20 | 4.1 nM |
| B21 | 2.8 nM and 3.7 nM |
| B22 | 2.7 nM |
| B23 | 9.9 nM |
| B24 | 6 nM |
| B25 | 0.7 nM |
| B26 | 1.3 nM |
| B27 | 3.1 nM and 4.4 nM |
| B28 | 3.2 nM and 8.9 nM |
| B29 | 2.5 nM and 6.6 nM |
| B30 | 24 nM |
| B31 | 16 nM |
| B32 | 5.1 nM |

| Binder | EC50 |
| --- | --- |
| B33 | 3.4 nM |
| B34 | 4.8 nM |
| B35 | 5.5 nM |
| B36 | 4.8 nM |
| B37 | 4.5 nM and 11.1 nM |
| B38 | 10.2 nM |
| B39 | 2.3 nM and 3.6 nM |
| B40 | 1.8 nM and 2.2 nM |
| B41 | 3 nM |
| B42 | 5.7 nM |
| B43 | 6.3 nM |
| B44 | 8.8 nM |
| B45 | 18.1 nM |
| B46 | 4 nM |
| B47 | 4.4 nM |
| B48 | 1.5 nM |
| B49 | 2 nM |
| B50 | 180 nM |
| B51 | 114 nM |
| B52 | 170 nM |
| B53 | 3000 nM |

— patent US20200199244A1 (published 2020)
